Experimental findings from the supplement of paper PMC9112550, “Optimization of the antimicrobial peptide Bac7 by deep mutational scanning” (BMC Biology, 2022) are described below.

This data set has as its system Escherichia coli TOP10. Briefly: shrunken log2 fold change of peptide-encoding DNA abundance (4.5 h post-induction vs induction); higher = less antimicrobial activity (less host growth inhibition). To be noted: time post-induction: 4.5 h; library: site-saturation at positions 5, 18, 19, 20.
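Further: peptides expressed intracellularly from a pBAD plasmid library in pooled LB shake-flask culture, induced with 0.3% L-arabinose, DNA abundance read by NGS, three biological replicates, DESeq2 with apeglm shrinkage.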

In the case of RRIRERPPRLPRPRPRPKQPPRP, the “shrunken log2 fold change” value was 0.236.

For RRIRNRPPRLPRPRPRPHLCPRP, the “shrunken log2 fold change” value came to 0.183.

Regarding RRIRERPPRLPRPRPRPIPFPRP, the “shrunken log2 fold change” value was -0.0238.

As for RRIRSRPPRLPRPRPRPRNVPRP, the “shrunken log2 fold change” value turned out to be 0.0864.

As for RRIRGRPPRLPRPRPRPGPCPRP, the “shrunken log2 fold change” value was determined as 0.854.

Regarding RRIRPRPPRLPRPRPRPAVPPRP, the “shrunken log2 fold change” value was found to be 0.1.

With RRIRDRPPRLPRPRPRPANKPRP, the “shrunken log2 fold change” value is -0.261.

On to RRIRGRPPRLPRPRPRPILAPRP, for which the “shrunken log2 fold change” value is 0.492.

RRIRCRPPRLPRPRPRPVSGPRP: the “shrunken log2 fold change” value was 0.357.

In the case of RRIRKRPPRLPRPRPRPGSMPRP, the “shrunken log2 fold change” value came out at 0.285.

In the case of RRIRWRPPRLPRPRPRPFQPPRP, the “shrunken log2 fold change” value was -0.0697.

For the sequence RRIRVRPPRLPRPRPRPFYSPRP, the “shrunken log2 fold change” value was -0.3.

RRIRWRPPRLPRPRPRPGHMPRP: the “shrunken log2 fold change” value was -0.0823.

For the sequence RRIRDRPPRLPRPRPRPFPTPRP, the “shrunken log2 fold change” value was found to be 0.0231.

In the case of RRIRWRPPRLPRPRPRPCGDPRP, the “shrunken log2 fold change” value worked out at 0.183.

As to RRIRKRPPRLPRPRPRPINQPRP, the “shrunken log2 fold change” value was -0.166.

Consider RRIRMRPPRLPRPRPRPKTPPRP, for which the “shrunken log2 fold change” value came to 3.35.

As for RRIRPRPPRLPRPRPRPHLKPRP, the “shrunken log2 fold change” value is -0.000265.

For the sequence RRIRNRPPRLPRPRPRPQQCPRP, the “shrunken log2 fold change” value was -0.0851.

Regarding RRIRTRPPRLPRPRPRPRWHPRP, the “shrunken log2 fold change” value came out at 0.133.

On to RRIRFRPPRLPRPRPRPSWYPRP, for which the “shrunken log2 fold change” value was -0.401.

Regarding RRIRFRPPRLPRPRPRPDEEPRP, the “shrunken log2 fold change” value was -0.00623.

Turning to RRIRLRPPRLPRPRPRPYYHPRP, the “shrunken log2 fold change” value is -0.712.

RRIRSRPPRLPRPRPRPALCPRP: the “shrunken log2 fold change” value amounted to 0.292.

Consider RRIRWRPPRLPRPRPRPQHMPRP, for which the “shrunken log2 fold change” value is -0.459.

In the case of RRIRLRPPRLPRPRPRPDTMPRP, the “shrunken log2 fold change” value was -0.286.

Consider RRIRLRPPRLPRPRPRPGCLPRP, for which the “shrunken log2 fold change” value was -0.129.

On to RRIRWRPPRLPRPRPRPMNAPRP, for which the “shrunken log2 fold change” value came out at 0.327.

RRIRQRPPRLPRPRPRPCDQPRP: the “shrunken log2 fold change” value stood at 0.0849.

RRIRHRPPRLPRPRPRPNYPPRP: the “shrunken log2 fold change” value is -0.32.

As for RRIRMRPPRLPRPRPRPSHLPRP, the “shrunken log2 fold change” value is -0.123.

For the sequence RRIRYRPPRLPRPRPRPVQLPRP, the “shrunken log2 fold change” value was -0.779.

Turning to RRIRKRPPRLPRPRPRPIPFPRP, the “shrunken log2 fold change” value stood at 0.347.

In the case of RRIRPRPPRLPRPRPRPHAPPRP, the “shrunken log2 fold change” value amounted to 0.082.

On to RRIRQRPPRLPRPRPRPPYRPRP, for which the “shrunken log2 fold change” value was 0.158.

For the sequence RRIRYRPPRLPRPRPRPCAAPRP, the “shrunken log2 fold change” value was -0.642.

With RRIRWRPPRLPRPRPRPSRKPRP, the “shrunken log2 fold change” value turned out to be 0.244.

Take RRIRHRPPRLPRPRPRPHIDPRP: the “shrunken log2 fold change” value was -0.241.

In the case of RRIRCRPPRLPRPRPRPNKFPRP, the “shrunken log2 fold change” value was -0.472.

Turning to RRIRFRPPRLPRPRPRPFLHPRP, the “shrunken log2 fold change” value was -0.329.

Turning to RRIRVRPPRLPRPRPRPTHEPRP, the “shrunken log2 fold change” value amounted to 0.256.

Consider RRIRVRPPRLPRPRPRPTHVPRP, for which the “shrunken log2 fold change” value amounted to 0.0149.

For the sequence RRIRLRPPRLPRPRPRPRCWPRP, the “shrunken log2 fold change” value came out at 0.371.

RRIRVRPPRLPRPRPRPAAKPRP: the “shrunken log2 fold change” value amounted to 0.348.

RRIRCRPPRLPRPRPRPKMDPRP: the “shrunken log2 fold change” value was -0.0622.

Regarding RRIRQRPPRLPRPRPRPPFNPRP, the “shrunken log2 fold change” value was -0.159.

Take RRIRHRPPRLPRPRPRPDRSPRP: the “shrunken log2 fold change” value was -0.0222.

For RRIRWRPPRLPRPRPRPSGSPRP, the “shrunken log2 fold change” value came to 0.316.

Regarding RRIRIRPPRLPRPRPRPFLMPRP, the “shrunken log2 fold change” value is -0.314.

Take RRIRPRPPRLPRPRPRPEHDPRP: the “shrunken log2 fold change” value was -0.00589.

For RRIRERPPRLPRPRPRPKDHPRP, the “shrunken log2 fold change” value is -0.323.

For RRIRCRPPRLPRPRPRPGPVPRP, the “shrunken log2 fold change” value turned out to be 0.239.

Take RRIRGRPPRLPRPRPRPCQMPRP: the “shrunken log2 fold change” value was determined as 0.215.

Regarding RRIRLRPPRLPRPRPRPRHPPRP, the “shrunken log2 fold change” value came to 0.163.

For RRIRMRPPRLPRPRPRPLWWPRP, the “shrunken log2 fold change” value worked out at 0.795.

As to RRIRPRPPRLPRPRPRPYEIPRP, the “shrunken log2 fold change” value was -0.0187.

On to RRIRARPPRLPRPRPRPQCYPRP, for which the “shrunken log2 fold change” value is -0.0761.

As for RRIRTRPPRLPRPRPRPLQAPRP, the “shrunken log2 fold change” value amounted to 0.00547.

Consider RRIRLRPPRLPRPRPRPMFWPRP, for which the “shrunken log2 fold change” value came to 0.145.

Take RRIRHRPPRLPRPRPRPDWLPRP: the “shrunken log2 fold change” value was determined as 0.0441.

RRIRIRPPRLPRPRPRPTMCPRP: the “shrunken log2 fold change” value is -0.386.

In the case of RRIRDRPPRLPRPRPRPWIMPRP, the “shrunken log2 fold change” value is -0.0114.

On to RRIRGRPPRLPRPRPRPKHSPRP, for which the “shrunken log2 fold change” value turned out to be 0.209.

On to RRIRFRPPRLPRPRPRPGEGPRP, for which the “shrunken log2 fold change” value was found to be 0.375.

On to RRIRTRPPRLPRPRPRPPDYPRP, for which the “shrunken log2 fold change” value was -0.0981.

For RRIRCRPPRLPRPRPRPMLIPRP, the “shrunken log2 fold change” value is -0.552.

RRIRQRPPRLPRPRPRPWPDPRP: the “shrunken log2 fold change” value was -0.0854.

Take RRIRYRPPRLPRPRPRPMIQPRP: the “shrunken log2 fold change” value was -0.0921.

As for RRIRNRPPRLPRPRPRPPHQPRP, the “shrunken log2 fold change” value turned out to be 0.0134.

Take RRIRLRPPRLPRPRPRPWFDPRP: the “shrunken log2 fold change” value was -0.365.

In the case of RRIRHRPPRLPRPRPRPKWYPRP, the “shrunken log2 fold change” value was -0.462.

With RRIRARPPRLPRPRPRPHIYPRP, the “shrunken log2 fold change” value was -0.805.

As for RRIRQRPPRLPRPRPRPSVMPRP, the “shrunken log2 fold change” value is -0.283.

Consider RRIRTRPPRLPRPRPRPTSYPRP, for which the “shrunken log2 fold change” value was -0.268.

For RRIRNRPPRLPRPRPRPTWEPRP, the “shrunken log2 fold change” value was 0.102.

Regarding RRIRERPPRLPRPRPRPKKFPRP, the “shrunken log2 fold change” value was -0.524.

For the sequence RRIRSRPPRLPRPRPRPFTHPRP, the “shrunken log2 fold change” value was -0.0568.

Take RRIRSRPPRLPRPRPRPSMEPRP: the “shrunken log2 fold change” value is -0.0673.

Take RRIRHRPPRLPRPRPRPNHFPRP: the “shrunken log2 fold change” value was -0.262.

Take RRIRNRPPRLPRPRPRPAPSPRP: the “shrunken log2 fold change” value worked out at 0.271.

On to RRIRMRPPRLPRPRPRPEMPPRP, for which the “shrunken log2 fold change” value came to 0.791.

For the sequence RRIRERPPRLPRPRPRPESAPRP, the “shrunken log2 fold change” value was 0.056.

For RRIRWRPPRLPRPRPRPPHCPRP, the “shrunken log2 fold change” value stood at 0.754.

Take RRIRIRPPRLPRPRPRPYDIPRP: the “shrunken log2 fold change” value is -0.0903.

Regarding RRIRMRPPRLPRPRPRPPYFPRP, the “shrunken log2 fold change” value came out at 0.104.

With RRIRQRPPRLPRPRPRPNCSPRP, the “shrunken log2 fold change” value was -0.0334.

Consider RRIRQRPPRLPRPRPRPQKQPRP, for which the “shrunken log2 fold change” value was 0.057.

On to RRIRMRPPRLPRPRPRPTFIPRP, for which the “shrunken log2 fold change” value was -0.027.

For the sequence RRIRCRPPRLPRPRPRPCKKPRP, the “shrunken log2 fold change” value was -0.205.

For the sequence RRIRQRPPRLPRPRPRPYQFPRP, the “shrunken log2 fold change” value is -0.168.

As for RRIRLRPPRLPRPRPRPLYKPRP, the “shrunken log2 fold change” value is -0.328.

Take RRIRSRPPRLPRPRPRPFSDPRP: the “shrunken log2 fold change” value was -0.126.

Take RRIRTRPPRLPRPRPRPMLAPRP: the “shrunken log2 fold change” value was determined as 0.306.

As to RRIRSRPPRLPRPRPRPFKGPRP, the “shrunken log2 fold change” value worked out at 0.112.

For RRIRRRPPRLPRPRPRPHPVPRP, the “shrunken log2 fold change” value worked out at 0.175.

For the sequence RRIRERPPRLPRPRPRPAGIPRP, the “shrunken log2 fold change” value was -0.536.

As to RRIRWRPPRLPRPRPRPDEEPRP, the “shrunken log2 fold change” value was found to be 0.215.

For RRIRKRPPRLPRPRPRPIFAPRP, the “shrunken log2 fold change” value is 0.454.

Regarding RRIRLRPPRLPRPRPRPMIHPRP, the “shrunken log2 fold change” value is -0.186.

Consider RRIRWRPPRLPRPRPRPPGYPRP, for which the “shrunken log2 fold change” value worked out at 0.684.

RRIRLRPPRLPRPRPRPLSYPRP: the “shrunken log2 fold change” value is 0.128.

As to RRIRRRPPRLPRPRPRPTVVPRP, the “shrunken log2 fold change” value came out at 0.0199.

Take RRIRRRPPRLPRPRPRPVCVPRP: the “shrunken log2 fold change” value is 0.359.

Regarding RRIRKRPPRLPRPRPRPQRCPRP, the “shrunken log2 fold change” value stood at 0.269.

Consider RRIRMRPPRLPRPRPRPCPEPRP, for which the “shrunken log2 fold change” value is 0.123.

On to RRIRKRPPRLPRPRPRPKFPPRP, for which the “shrunken log2 fold change” value amounted to 0.134.

In the case of RRIRSRPPRLPRPRPRPHAPPRP, the “shrunken log2 fold change” value was 0.27.

With RRIRHRPPRLPRPRPRPTTWPRP, the “shrunken log2 fold change” value was -0.182.

As to RRIRERPPRLPRPRPRPQKWPRP, the “shrunken log2 fold change” value was -0.473.

Consider RRIRMRPPRLPRPRPRPRPHPRP, for which the “shrunken log2 fold change” value is 1.05.

Take RRIRNRPPRLPRPRPRPVFCPRP: the “shrunken log2 fold change” value is 0.36.

On to RRIRFRPPRLPRPRPRPPVSPRP, for which the “shrunken log2 fold change” value was 0.0761.

As to RRIRMRPPRLPRPRPRPLHAPRP, the “shrunken log2 fold change” value is 1.29.

Regarding RRIRKRPPRLPRPRPRPYFHPRP, the “shrunken log2 fold change” value was -0.225.

For RRIRFRPPRLPRPRPRPIQAPRP, the “shrunken log2 fold change” value turned out to be 0.00328.

For RRIRHRPPRLPRPRPRPRNRPRP, the “shrunken log2 fold change” value is 0.672.

Take RRIRNRPPRLPRPRPRPLTIPRP: the “shrunken log2 fold change” value was -0.389.

In the case of RRIRNRPPRLPRPRPRPSAIPRP, the “shrunken log2 fold change” value is -0.354.

For RRIRPRPPRLPRPRPRPLPDPRP, the “shrunken log2 fold change” value is 0.179.

For the sequence RRIRGRPPRLPRPRPRPWYRPRP, the “shrunken log2 fold change” value is -0.19.

Consider RRIRSRPPRLPRPRPRPQTDPRP, for which the “shrunken log2 fold change” value was -0.0826.

With RRIRTRPPRLPRPRPRPNSVPRP, the “shrunken log2 fold change” value is -0.0853.

RRIRWRPPRLPRPRPRPEFGPRP: the “shrunken log2 fold change” value was 0.393.

For RRIRTRPPRLPRPRPRPCQKPRP, the “shrunken log2 fold change” value is 0.0124.

With RRIRIRPPRLPRPRPRPSREPRP, the “shrunken log2 fold change” value is -0.0977.
